Measurements taken from patent US20100172925A1, “HLA-A2-RESTRICTED T-CELL EPITOPES OF THE RESPIRATORY SYNCYTIAL VIRUS FUSION PROTEIN AS PEPTIDE-BASED VACCINES” (priority 2009, published 2010).

The binders below were run against HLA-A*0201 molecule on human T2 cells (human) (assay: T2-based binding assay, flow cytometry with FITC anti-HLA-A2).
With KIMTSKTDV (modifications not checked) [RSV F peptide No. 17 (F417-425)] the MFI ratio (ratio to the negative control) was 0.91.

The binders below were run against HLA-A*0201 molecule on human T2 cells (human) (assay: not given).
TLLLWVLLL (modifications not checked) [RSV F peptide No. 1 (F5-13)] was tested, and the MFI above baseline (% higher than the baseline) was 10.

What follows are binders tested against HLA-A*0201 molecule on human T2 cells (human) (assay: T2 cell-stabilization assay, flow cytometry with FITC anti-HLA-A2, peptide 50 µg/mL).
In the case of SVGNTLYYV (modifications not checked) [RSV F peptide No. 18 (F474-482)], the MFI above baseline (% higher than the baseline) is reported as 10.
Binder FLLGVGSAI (modifications not checked) [RSV F peptide No. 6 (F163-171)] has an MFI above baseline (% higher than the baseline) of 10.
ALLSTNKAV (modifications not checked) [RSV F peptide No. 8 (F193-201)] showed an MFI above baseline (% higher than the baseline) of 10.
With LMSNNVQIV (modifications not checked) [RSV F peptide No. 16 (F296-304)] the MFI ratio (fold of the negative control) was 1.5.
For YMLTNSELL (modifications not checked) [RSV F peptide No. 14 (F273-281)], the MFI ratio (fold of the negative control) was 1.5.
LLSTNKAVV (modifications not checked) [RSV F peptide No. 9 (F194-202)] gave an MFI ratio (fold of the negative control) of 1.5.
AITTILAAV (modifications not checked) [RSV F peptide No. 3 (F33-41)] gave an MFI ratio (fold of the negative control) of 1.5.
LLSLIAVGL (modifications not checked) [RSV F peptide No. 24 (F561-569)] was tested, and the MFI ratio (fold of the negative control) was 1.5.
With SLIAVGLLL (modifications not checked) [RSV F peptide No. 25 (F563-571)] the MFI above baseline (% higher than the baseline) was 10.
VILLSLIAV (modifications not checked) [RSV F peptide No. 23 (F559-567)] was tested, and the MFI ratio (fold of the negative control) was 1.5.
KLMSNNVQI (modifications not checked) [RSV F peptide No. 15 (F295-303)] gave an MFI ratio (fold of the negative control) of 1.5.
Work on KVLDLKNYI (modifications not checked) [RSV F peptide No. 13 (F214-222)] yielded an MFI above baseline (% higher than the baseline) of 10.
